Where no end group is shown, it is not given here.
What was measured:
Test in all cases: cell-based or functional assay
[1] = target: MEK1 (Meiosis-specific serine/threonine protein kinase) (UniProt Q02750 1-393)
[2] = target: T1, PRAK (p38-Regulated/Activated Protein Kinase) (UniProt Q8IW41 1-473)
T1 sequence: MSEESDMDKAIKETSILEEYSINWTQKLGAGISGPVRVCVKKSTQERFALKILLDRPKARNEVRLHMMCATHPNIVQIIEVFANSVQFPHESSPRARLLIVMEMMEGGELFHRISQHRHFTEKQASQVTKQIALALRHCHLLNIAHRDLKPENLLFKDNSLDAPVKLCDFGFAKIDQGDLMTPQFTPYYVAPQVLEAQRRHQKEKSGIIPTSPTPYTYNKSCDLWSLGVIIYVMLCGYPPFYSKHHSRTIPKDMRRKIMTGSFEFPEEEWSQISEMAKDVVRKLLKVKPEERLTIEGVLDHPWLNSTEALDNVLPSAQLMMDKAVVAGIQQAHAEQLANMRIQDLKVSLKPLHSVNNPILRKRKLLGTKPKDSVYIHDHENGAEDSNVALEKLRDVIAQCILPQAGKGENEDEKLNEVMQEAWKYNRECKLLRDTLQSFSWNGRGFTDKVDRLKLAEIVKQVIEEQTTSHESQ

[3] = target: T2, MKK4 (Mitogen-Activated Protein Kinase Kinase 4) (UniProt P45985 1-399)
T2 sequence: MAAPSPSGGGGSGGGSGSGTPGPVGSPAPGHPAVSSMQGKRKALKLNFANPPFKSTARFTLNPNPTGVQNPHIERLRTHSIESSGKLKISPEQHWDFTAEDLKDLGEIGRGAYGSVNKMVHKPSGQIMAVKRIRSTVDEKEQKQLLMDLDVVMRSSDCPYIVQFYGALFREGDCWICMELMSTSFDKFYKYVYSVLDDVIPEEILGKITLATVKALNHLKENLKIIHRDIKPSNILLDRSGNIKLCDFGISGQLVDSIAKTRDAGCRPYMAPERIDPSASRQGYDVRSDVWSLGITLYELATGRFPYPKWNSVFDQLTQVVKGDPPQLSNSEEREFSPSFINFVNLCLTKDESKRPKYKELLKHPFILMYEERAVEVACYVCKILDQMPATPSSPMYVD

[4] = target: p38 MAPK (p38 Mitogen-Activated Protein Kinase)
[5] = target: T3, MKK6 (Mitogen-Activated Protein Kinase Kinase) (UniProt P52564 1-334)
T3 sequence: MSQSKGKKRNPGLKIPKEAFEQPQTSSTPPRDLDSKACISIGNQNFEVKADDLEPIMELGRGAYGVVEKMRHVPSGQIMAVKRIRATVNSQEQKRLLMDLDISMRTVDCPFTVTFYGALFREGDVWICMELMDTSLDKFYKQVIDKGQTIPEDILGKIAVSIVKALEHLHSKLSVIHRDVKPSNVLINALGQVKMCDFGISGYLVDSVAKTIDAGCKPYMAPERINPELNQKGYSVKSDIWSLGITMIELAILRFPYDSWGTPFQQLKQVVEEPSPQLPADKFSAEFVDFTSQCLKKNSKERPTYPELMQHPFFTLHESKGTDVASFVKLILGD

[6] = target: JNK (c-Jun N-terminal Kinase)

Binder: YARAAARQARAKALARQLGVAA (not fully specified (C-terminus)) [MMI-0100 (YARAAARQARAKALARQLGVAA; SEQ ID NO: 1)]
- Percent Activity (radiometric kinase assay, peptide at 100 µM) [1]: 68 % activity
- Percent Activity (radiometric kinase assay, peptide at 100 µM) [2]: 100 % activity
- Percent Activity (radiometric kinase assay, peptide at 100 µM) [3]: 90 % activity
- Percent Activity (radiometric kinase assay, peptide at 100 µM) [4]: 60 % activity
- Percent Activity (radiometric kinase assay, peptide at 100 µM) [5]: 50 % activity
- Percent Activity (radiometric kinase assay, peptide at 100 µM) [6]: 92 % activity
